From publication PMC11077089, “Molecular basis of A. thaliana KEOPS complex in biosynthesizing tRNA t6A”
Numbering of substitutions follows the chain as printed.

How the values were obtained:
[1] = biological target: T1, KAE1;BUD32;CGI121;PCC1 R70D/R73D/A74E (Arabidopsis thaliana;Arabidopsis …, UniProt O49653;Q94K14;Q6NMZ4;Q8GWD7 1-353;1-226;1-172;1-96, |||R70D;R73D;A74E); test: MST; KEOPS monomer; MST: 20 mM PBS pH 7.5, 300 mM NaCl, 0.05% Tween 20, 25 C, 50 nM RNA; EMSA: 20 mM Tris-HCl pH 7.5, 300 mM NaCl, 5 mM b-mercaptoethanol, 20% glycerol, agarose gel in Tris-glycine pH 8.0 (8.5 for FAM-RNA), 4 C; conditions: protein: recombinant;recombinant;recombinant;recombinant; tags: none (6His on partner PCC1);none (6His on partner CGI121);6His (C-term);6His (C-term); chain copies: 2;2;2;2; label: 5' 6-FAM; tRNA cloverleaf
T1 sequence 1: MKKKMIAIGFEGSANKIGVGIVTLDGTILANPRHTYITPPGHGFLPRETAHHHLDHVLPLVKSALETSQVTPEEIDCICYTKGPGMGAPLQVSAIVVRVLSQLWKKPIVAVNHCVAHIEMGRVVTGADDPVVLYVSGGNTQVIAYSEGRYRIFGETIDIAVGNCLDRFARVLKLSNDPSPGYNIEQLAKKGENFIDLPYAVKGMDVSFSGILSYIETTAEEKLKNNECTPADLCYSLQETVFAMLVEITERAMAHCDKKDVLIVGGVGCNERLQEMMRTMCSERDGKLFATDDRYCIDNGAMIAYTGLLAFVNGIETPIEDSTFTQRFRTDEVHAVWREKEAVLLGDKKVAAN
T1 sequence 2: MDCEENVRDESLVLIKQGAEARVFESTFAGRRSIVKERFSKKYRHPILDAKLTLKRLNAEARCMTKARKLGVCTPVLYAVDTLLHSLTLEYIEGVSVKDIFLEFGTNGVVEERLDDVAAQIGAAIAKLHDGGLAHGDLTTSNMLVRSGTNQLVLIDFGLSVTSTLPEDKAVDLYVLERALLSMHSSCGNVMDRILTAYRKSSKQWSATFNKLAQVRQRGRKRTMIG
T1 sequence 3: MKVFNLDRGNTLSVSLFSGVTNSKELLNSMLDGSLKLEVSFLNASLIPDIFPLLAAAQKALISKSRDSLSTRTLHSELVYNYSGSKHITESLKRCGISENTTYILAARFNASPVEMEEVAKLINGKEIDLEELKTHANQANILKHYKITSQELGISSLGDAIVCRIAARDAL
T1 sequence 4: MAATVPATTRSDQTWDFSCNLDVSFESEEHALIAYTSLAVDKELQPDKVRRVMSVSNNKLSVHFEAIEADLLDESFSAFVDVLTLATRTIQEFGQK

CGI121 = biological target: T2, CGI121 (Arabidopsis thaliana, UniProt Q6NMZ4 1-172); test: EMSA; MST: 20 mM PBS pH 7.5, 300 mM NaCl, 0.05% Tween 20, 25 C, 50 nM RNA; EMSA: 20 mM Tris-HCl pH 7.5, 300 mM NaCl, 5 mM b-mercaptoethanol, 20% glycerol, agarose gel in Tris-glycine pH 8.0 (8.5 for FAM-RNA), 4 C; conditions: protein: recombinant; tags: 6His (C-term); label: 5' 6-FAM; tRNA cloverleaf
T2 sequence: T1 sequence 3

BUD32;CGI121 = biological target: T3, BUD32;CGI121 (Arabidopsis thaliana;Arabidopsis …, UniProt Q94K14;Q6NMZ4 1-226;1-172, |); test: MST; MST: 20 mM PBS pH 7.5, 300 mM NaCl, 0.05% Tween 20, 25 C, 50 nM RNA; EMSA: 20 mM Tris-HCl pH 7.5, 300 mM NaCl, 5 mM b-mercaptoethanol, 20% glycerol, agarose gel in Tris-glycine pH 8.0 (8.5 for FAM-RNA), 4 C; conditions: protein: recombinant;recombinant; tags: none (6His on partner CGI121);6His (C-term); copies: 1;1; label: 5' 6-FAM; tRNA cloverleaf
T3 sequence 1: T1 sequence 2
T3 sequence 2: T1 sequence 3

[2] = biological target: T4, KAE1;BUD32 N58R;CGI121;PCC1 (Arabidopsis thaliana;Arabidopsis …, UniProt O49653;Q94K14;Q6NMZ4;Q8GWD7 1-353;1-226;1-172;1-96, |N58R||); test: as above; conditions: protein: recombinant;recombinant;recombinant;recombinant; tags: none (6His on partner PCC1);;6His (C-term);6His (C-term); chain copies: 2;2;2;2; label: 5' 6-FAM; tRNA cloverleaf
T4 sequence 1: T1 sequence 1
T4 sequence 2: T1 sequence 2 with N58R
T4 sequence 3: T1 sequence 3
T4 sequence 4: T1 sequence 4 with D70R, D73R, E74A

KAE1;BUD32;PCC1 = biological target: T5, KAE1;BUD32;PCC1 (Arabidopsis thaliana;Arabidopsis …, UniProt O49653;Q94K14;Q8GWD7 1-353;1-226;1-96, ||); test: as above; conditions: protein: recombinant;recombinant;recombinant; tags: none (6His on partner PCC1);none (6His on partner CGI121);6His (C-term); chain copies: 2;2;2; label: 5' 6-FAM; tRNA cloverleaf
T5 sequence 1: T1 sequence 1
T5 sequence 2: T1 sequence 2
T5 sequence 3: T1 sequence 4 with D70R, D73R, E74A

B1: 5'-6FAM-tRNAArgCCU (structured_RNA)
RNA: GCGCCUGUAGCUCAGUGGAUAGAGCGUCUGUUUCCUAAGCAGAAGGUCGUAGGUUCGACCCCUACCUGGCGCGCCA
Kd [1]: 74.4 ± 13.5 µM | binding result (CGI121): no binding | Kd (BUD32;CGI121): 61.6 ± 15 µM | Kd [2]: 9.81 ± 2.73 µM | Kd (KAE1;BUD32;PCC1): 38 ± 13.6 µM
